The data set deals with the molecule itself. In words: crystal structure; vapor diffusion, 50 mM Tris pH 7.5, 15% MPD, 25°C; four monomers (A, B, D, E) in the asymmetric unit; refined to 1.7 Å.

Data on one protein can be found in paper PMC3834196, “High Resolution Crystal Structure of Human β-Glucuronidase Reveals Structural Basis of Lysosome Targeting” (PLoS ONE, 2013).

B1: Human β-glucuronidase (enzyme, UniProt P08236 23-651, looked up)
chain: LQGGMLYPQESPSRECKELDGLWSFRADFSDNRRRGFEEQWYRRPLWESGPTVDMPVPSSFNDISQDWRLRHFVGWVWYEREVILPERWTQDLRTRVVLRIGSAHSYAIVWVNGVDTLEHEGGYLPFEADISNLVQVGPLPSRLRITIAINNTLTPTTLPPGTIQYLTDTSKYPKGYFVQNTYFDFFNYAGLQRSVLLYTTPTTYIDDITVTTSVEQDSGLVNYQISVKGSNLFKLEVRLLDAENKVVANGTGTQGQLKVPGVSLWWPYLMHERPAYLYSLEVQLTAQTSLGPVSDFYTLPVGIRTVAVTKSQFLINGKPFYFHGVNKHEDADIRGKGFDWPLLVKDFNLLRWLGANAFRTSHYPYAEEVMQMCDRYGIVVIDECPGVGLALPQFFNNVSLHHHMQVMEEVVRRDKNHPAVVMWSVANEPASHLESAGYYLKMVIAHTKSLDPSRPVTFVSNSNYAADKGAPYVDVICLNSYYSWYHDYGHLELIQLQLATQFENWYKKYQKPIIQSEYGAETIAGFHQDPPLMFTEEYQKSLLEQYHLGLDQKRRKYVVGELIWNFADFMTEQSPTRVLGNKKGIFTRQRQPKSAAFLLRERYWKIANETRYPHSVAKSQCLENSLFT
modifications: N-linked oligosaccharide at Asn173 (six mannose, one β-D-mannose, three N-acetyl glucosamine); single N-acetyl-glucopyranose at Asn272 (as seen in the electron density)
notes: β-glucuronidase, human, UniProt P08236; secreted enzyme; the final model holds residues 22 to 631 of each subunit; Homotetramer (subunits A, B, D, E) in the crystal; also called GUS; human GUS; source: CHO-K1, stably transfected, secreted
Take B1: the stoichiometry N (commonly the number of molecules, sites or subunits per partner or assembly) amounted to 4.
